assay: soluble on expression in E. coli; label from the status in PepcDB or PDB records

Sequence | soluble on expression in E. coli
NLSSSESQESTGQHQVTVAAVQGNVPRLGLDFNAQRRAVLANHVQETRKLTEQVDFIVWPENSSDVDPFADVRARNLINSAVASVQAPIVVGTVTTDEVGARNAMVVFDPETGEGDWHVKKFLQPFGEWMPWRDFFRKFSSLVDLAGDFKPGEGSGVVRVHAAQLGETVKLGISTCYEVAFDQAGRDAVLAGAQILATPTNNATFGFTDMTYQQLAMSRMRAIELDRAVVVAATSGVSAIVTPRGEVLQHSKIFESATLVQSLPLKETITFSARYGTLLE | not soluble
PHSPLAEGRREVAKVLTMASEALTQVSTAMRTGDVDGIREALRKARGSQAAINAMIAAAKSGQEEVAVSPFLWSSKARVRSFVRILHPVDNAMRNTRVLARRAQVLIEDGDEVSEAQIQLIDDLVSVTSAVAAIYDRRGAASEAAEIPELVRTLQTMAARAGLSVAEGKVLSAQVVLAQTRSIIVDLLQVCGMSRASAVASLALTSESPAYPSEIRDDPNH | soluble
MYMAQPGHIDHIKQINAGRVYKLIDQKGPISRIDLSKESELAPASITKITRELIDAHLIHETTVQEAISRGRPAVGLQTNNLGWQFLSMRLGRGYLTIALHELGGEVLIDTKIDIHEIDQDDVLARLLFEIEEFFQTYAAQLDRVTSIAITLPGLVNSEQGIVLQMPHYNVKNLALGPEIYKATGLPVFVANDTRAWALAEKLFGHSQDVDNSVLISIHHGLGAGIVLDGRVLQGRHGNIGELGHIQIDPQGKRCHCGNYGCLETVASSQAIRDQVTARIQAGEPSCLATVEEISIEDICAAAADGDPLAVDVIQQLGRYLGAAIAIVINLFNPEKILIGGVINQAKSILYPSIEQCIREQSLPVYHQDLKLVESRFYKQATMPGAALIKQALYDGLLLMKVVEG | soluble
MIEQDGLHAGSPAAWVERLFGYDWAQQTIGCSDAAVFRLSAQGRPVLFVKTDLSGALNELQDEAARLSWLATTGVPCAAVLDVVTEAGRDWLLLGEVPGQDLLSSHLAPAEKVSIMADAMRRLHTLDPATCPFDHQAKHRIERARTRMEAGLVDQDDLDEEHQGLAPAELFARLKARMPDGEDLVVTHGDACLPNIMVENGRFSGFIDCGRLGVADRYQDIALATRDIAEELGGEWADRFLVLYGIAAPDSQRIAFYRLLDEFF | soluble
MSLRVADLLQHINLMKTSDSYGFKEEYESFFEGQSASWDVAKKDQNRAKNRYGNIIAYDHSRVILQPVEDDPSSDYINANYIDGYQRPSHYIATQGPVHETVYDFWRMIWQEQSACIVMVTNLVEVGRVKCYKYWPDDTEVYGDFKVTCVEMEPLAEYVVRTFTLERRGYNEIREVKQFHFTGWPDHGVPYHATGLLSFIRRVKLSNPPSAGPIVVHCSAGAGRTGCYIVIDIMLDMAEREGVVDIYNCVKALRSRRINMVQTEEQYIFIHDAILEACLCGETAIPVCEFKAAYFDMIRIDSQTNSSHLKDEFQTLNSVTPRLQAEDCSIACLPRNHDKNRFMDMLPPDRCLPFLITIDGESSNYINAALMDSYRQPAAFIVTQYPLPNTVKDFWRLVYDYGCTSIVMLNEVDLSQGCPQYWPEEGMLRYGPIQVECMSCSMDCDVINRIFRICNLTRPQEGYLMVQQFQYLGWASHREVPGSKRSFLKLILQVEKWQEECEEGEGRTIIHCLNGGGRSGMFCAIGIVVEMVKRQNVVDVFHAVKTLRNSKPNMVEAPEQYRFCYDVALEYLESSEGHHHHHH | soluble
MIRVASLIKAMSDTQLQIAQGASPLTGLPGNSAIEQEIKRRLNSGNAFGMIYADLNQFKAFNDTYGFQYGDSIIKLLGKILMQDSLKADDLAFVGHVGGDDFIILTTQNVTKTLGETILLSFQEQLSAMQGAQDLSLALAGLIIYPHTAWTPATLSERIAAVKREAKKAHCNYFLLRELEHHHHHH | not soluble
MKPDETPMFDPSLLKEVDWSQNTATFSPAISPTHPGEGLVLRPLCTADLNRGFFKVLGQLTETGVVSPEQFMKSFEHMKKSGDYYVTVVEDVTLGQIVATATLIIEHKFIHSCAKRGRVEDVVVSDECRGKQLGKLLLSTLTLLSKKLNCYKITLECLPQNVGFYKKFGYTVSEENYMCRRFLK | soluble
MRKLKYHEKKLIKKVNFLEWKREGNHRENEITYRYHMGSRDDYKKYSGLCRMVQKLTNIMKQMDPADPFRIQMTDMLLEKLYNMGVIPTRKSLTLTERLSVSSFCRRRLSTVLVHLKFAEHHKEAVTYIEQGHVRVGPETITDPAFLVTRNMEDFITWVDSSKIKRKVLEYNDTLDDYDMLA | not soluble
MSLKITDVKVWLVQGIKYNWTLLKIYTDEGYTGVGEATNWPGSPIVFEAAKHVGQRIIGLDPMKTDFIWTKLYRDLNWIGPYGASLCAISGIDMALLDLKAKVLGVPCYELLGGAYRKDIQLYANYWFTGGGHNEADYAAQARRVMDAGFTGLKFDPFAHTNYFYGEDLASNLTLTAEQQDLAFNVSKAVREAVGSECDIMIETHAMLNYRVAVKMAERLAKLDITWYEEPAGPESSQTLRAMRERIPSDVAICVGERHYTRFGIRSLLEKHVCDVIMPDITRCGGPSEMKRMATMAEAYNVLIAPHNPNGPLSTLASSHVCAAIPNFFRQEFMFNDVPWRDTVIDHPIAEMVYDGHLHLSDRPGLGVDLVEEEMEKHPGITTDAPDNFYIEGHHHHHH | soluble
AQAVKEAASSDKPLIVAVTACTTGIAHIYMAEESLIKTGEKMSVNVRVETNGASGVGTPMTAEEINKAVGVIIAADKAVETACFNGKN | not soluble
MFQQQKDWETRENAFAAFTMGPLTDFWRQRDEAEFTGVDDIPVRFVRFRAQHHDRVVVICPGRIESYVKYAELAYDLFHLGFDVLIIDHRGQGRSGRLLADPHLGHVNRFNDYVDDLAAFWQQEVQPGPWRKRYILAHSMGGAISTLFLQRHPGVCDAIALTAPMFGIVIRMPSFMARQILNWAEAHPRFRDGYAIGTGRWRALPFAINVLTHSRQRYRRNLRFYADDPTIRVGGPTYHWVRESILAGEQVLAGAGDDATPTLLLQAEEERVVDNRIHDRFCELRTAAGHPVEGGRPLVIKGAYHEILFEKDAMRSVALHAIVDFFNRHNSPSGNRSTEV | soluble
MSLSANFSENISRLGLSSRSKQEKLAHLMETELTHLQASFIEAPTGLGKTYGYLLPILASGKGLVVSTATKVLQKQLVNDVAPKLGKTFGLKMAKIVGTKNYISLRKFSELLLNNTDGKNFEIFKMKILIWLTETRTGELDEVSKVMTNDDYFEVIRHDGYVNTKQLHYEQDFWLKAQKEAEQAEIKVVNHAYLIERLADYPETFLENRVLVVDEAQQLFPIMENAGQKSLKITDELIKIDAETSENPQLTKRLQESLVFQLNKKELDLNKIKIDADELGLRNLSALLEADNQIVWRENGMLYASDQDFYNFERLIPKNTKLFMLGATLSLSKDKPSFPDLLGFTDYRFFKIEGNQATNQQLLTVTDAPNIKNLSLIDYADYTANSIGELSKLNLPMVVLFTSKMALTFVAEKLSAEGFEILAQDINGSPAQIKKKFDKGEGKILLGLGSFWEGVDFDKQNQVILVIPRLPFATPDDILTKKYAQKFENPFYDFNVPMATLKLRQAIGRVNRRKNQYSSIVVLDKRLAGKSYAKRMRKNLSETLPVKMLNLLDTISEIKNFLIEGHHHHHH | not soluble
MGSDKIHHHHHHMSNSDPIERFFRSGLKLPHLRILVSLADLGQVTRVAAAFHVTQPAISKQIAEIEDALGVAVVNRVGNALELTGIGQVIVSCGREVLRHIELAKRDVSALASGTAGHVRVGAVVTIPEPLIANSVQLFIRRAPSASLSFAESTLDRLIRMMDDGELDIALGRNRIAGANSAQSTLKQEILHREPFVFVAGAHHPLGDPDRPTTWADLRGCRWITPMHGSPAYATLVEALAVHDLTPDPGAVESSSLALNVALIRSGDFVSILPMSVARPQVMRGNMRVLPLPPLQPLGEIVAYWRLGSTTPAAQLFNACLKEVSSDLLGERIEAG | not soluble
MGSDKIHHHHHHMEKKIVYFNKPGRENTEETLRLAVERAKELGIKHLVVASSYGDTAMKALEMAEGLEVVVVTYHTGFVREGENTMPPEVEEELRKRGAKIVRQSHILSGLERSISRKLGGVSRTEAIAEALRSLFGHGLKVCVEITIMAADSGAIPIEEVVAVGGRSRGADTAVVIRPAHMNNFFDAEIKEIICMPRNKR | soluble

Source: the DeepSol protein solubility set
